T1: Lin28 ZnF (UniProt Q9H9Z2 137-176)
T1 chain: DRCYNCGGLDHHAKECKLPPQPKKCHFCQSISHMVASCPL


How the values were obtained:
[1] = biological target: hnRNP A1 (cited work) (UniProt P09651); test: fluorescence assay; settings: cited from earlier work
[2] = biological target: hnRNP A1 (cited work) (UniProt P09651); test: filter binding; settings: cited from earlier work
[3] = biological target: T1, Lin28 ZnF; test: plate binding, coated protein

Chain of hnRNP A1 (cited work) (P09651 whole entry): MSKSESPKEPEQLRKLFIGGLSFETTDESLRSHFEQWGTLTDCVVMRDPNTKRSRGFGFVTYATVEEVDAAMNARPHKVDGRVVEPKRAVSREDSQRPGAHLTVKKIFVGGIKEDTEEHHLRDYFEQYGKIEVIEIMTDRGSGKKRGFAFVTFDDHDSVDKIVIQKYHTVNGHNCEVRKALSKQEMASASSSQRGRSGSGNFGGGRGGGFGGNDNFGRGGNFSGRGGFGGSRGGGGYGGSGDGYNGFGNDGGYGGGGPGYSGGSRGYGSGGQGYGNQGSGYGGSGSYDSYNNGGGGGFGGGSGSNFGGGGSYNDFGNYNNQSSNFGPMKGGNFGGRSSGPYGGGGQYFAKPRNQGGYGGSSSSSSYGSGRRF

Row | Molecule | Kd [1] [nM] | Kd [2] [nM] | binding result [3]
1 | UAUGAUAGGGACUUAGGGUG [hnRNP A1 SELEX winner] | 2.5 | 1 | 
2 | pre-miR-9-1 (structured_RNA) RNA: UCUUUGGUUAUCUAGCUGUAUGAGUGGUGUGGAGUCUUCAUAAAGCUAGAUAACCGAAAGU |  |  | binds
